These results are taken from PMC13082335, “Matrix plasticity and the molecular basis of extracellular filament assembly in Bacillus cereus” (Science Advances, 2026).

Data set [1] deals with CapP-His (full-length CapP, BC1280, with C-terminal polyhistidine tag) (Bacillus cereus ATCC14579) (UniProt Q81GC7). As to the kind of experiment: native gel or EMSA; native PAGE (Any kD Mini-PROTEAN TGX), 25 mM tris, 192 mM glycine, 200 V, NativeMark marker, Coomassie; second SEC peak. Background: In EMSA bound probe runs differently from free probe, usually more slowly.
Data set [2] deals with the molecule itself. The data set is described as above.

Broadly, the stoichiometry N is the number of molecules, sites or subunits per partner or assembly.

In data set [1], “CapP-His (full-length CapP, BC1280, with C-terminal polyhistidine tag) (from UniProt Q81GC7 1-279) (natural protein)” had a stoichiometry N of 15.

B1: N-domain(39-190)-His of CapP (domain or fragment)
chain: AAFIHETKVEATLSTAIIFPKTVNTLKEQSEKHKQFIEREYGTMKGKLKATSIEEIKQAISVWQQGREKIVAEKEALQNVYTEIEAPYNQIQEELKVNKDESMQQVSIYVNEGFRSIKEKRDYIEKEISLKAIDEQIQALQQQLNVAIEAEG
notes: CapP (BC1280) of Bacillus cereus ATCC14579, residues A39 to G190 (N-terminal domain); also called N-terminal domain; N-terminal construct; source: E. coli Lemo21 (DE3) pLysS, pET24b, purified under native conditions (HisTrap, Superdex 75 SEC); not shown: His6, C-terminal, kept
Consider B1, for which the “stoichiometry N” value in data set [2] is approximately 15.
